In patent publication US11124550:

Target: human voltage-gated sodium channel hNav1.1 (hSCN1A) (human) (UniProt P35498)
Experiment: cell-based or functional assay

Sequence of recombinant Hm1b (peptide) (P0DOC5 1-34, tags left off): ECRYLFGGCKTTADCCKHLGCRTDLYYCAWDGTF

recombinant Hm1b (peptide)
EC50 for evoking sustained currents: 18.5 nM
